The values that follow come from patent US8546337B2, “Self-assembling peptide nanoparticles useful as vaccines” (Alpha-O-Peptides AG, priority 2008, dated 2013).

Data set [1] concerns DR1, DR2, DR4, DR5, DRw6, DR7 and DR9 molecules. To be noted: cited from earlier work.
Data set [2] is classed as physicochemical. To be noted: DLS at pH 6.5.
Data set [3] can be described thus: analytical ultracentrifugation of SAPN. Format: physicochemical. To be noted: for MW / No. of monomers: SAPN. How it is done: Three conditions were tested for assembling nanoparticles from the monomeric building block SEQ ID NO:33. The molecular weight (MW) of the SAPN was assessed by analytical ultracentrifugation: The peptide was dissolved at 0.42 mg/ml, 0.34 mg/ml, and 0.21 mg/ml, in 150 mM NaCl, 20 mM Tris, pH 7.5. The measured MW corresponds to SAPN composed of about 330 monomers, i.e. a nanoparticle with more monomers than needed for a regular polyhedron with 60 asymmetric units (Table 23).

Where [4] appears, read: peptide 0.21 mg/ml in 150 mM NaCl, 20 mM Tris, pH 7.5.
The mark [5] stands for this setting: peptide 0.34 mg/ml in 150 mM NaCl, 20 mM Tris, pH 7.5.
The mark [6] stands for this setting: peptide 0.42 mg/ml in 150 mM NaCl, 20 mM Tris, pH 7.5.

As to “CS.T3 peptide: 17 C-terminal amino acids of P. falciparum circum sporozoite protein CS with two cysteines replaced by alanines (RLLLRLEELERRLEELEKKIAKMEKASSVFNVVLAALRRRLEELAR; trimeric coiled coil with P. falciparum HTL epitope)”, the “pan DR activity in cell proliferation assay” value in data set [1] is on record as “stimulatory”.

B1: MGHHHHHHASWKWDGGLVPRGSWQTWNAKWDQWSNDWNAWRSDWQAWKDDWAFWRALWMGGRLLLRLEELERRLEELEKKIAKMEKASSVFNVVLAALRRRLEELARGGSGANANPNANPNANPNANP (protein)
chain: MGHHHHHHASWKWDGGLVPRGSWQTWNAKWDQWSNDWNAWRSDWQAWKDDWAFWRALWMGGRLLLRLEELERRLEELEKKIAKMEKASSVFNVVLAALRRRLEELARGGSGANANPNANPNANPNANP
modifications: pentameric coiled coil with tryptophane zipper and trimeric coiled coil with P. falciparum HTL epitope
In data set [2], B1 registered a particle diameter of 44.6 nm and a polydispersity index of 19.6%.

B2: MGHHHHHHGDWKWDGGLVPRGSDEMLRELQETNAALQDVRELLRQQVKQITFLRALLMGGRLLARLEELERRLEELERRLEELERAINTVDLELAALRRRLEELAR (protein)
chain: MGHHHHHHGDWKWDGGLVPRGSDEMLRELQETNAALQDVRELLRQQVKQITFLRALLMGGRLLARLEELERRLEELERRLEELERAINTVDLELAALRRRLEELAR
modifications: building block comprising His-tag, COMP and P5c6
For the molecule B2, the “molecular weight of the SAPN” value in data set [3] (analytical ultracentrifugation) is listed as “about 4 MD”. Further, the “number of monomers (peptide chains) per SAPN” value in data set [3] (from measured MW, 150 mM NaCl, 20 mM Tris, pH 7.5) is “about 330”.

B3: SEQ ID NO: 33 (protein)
chain: MGHHHHHHGDWKWDGGLVPRGSDEMLRELQETNAALQDVRELLRQQVKQITFLRALLMGGRLLARLEELERRLEELERRLEELERAINTVDLELAALRRRLEELAR
modifications: building block comprising His-tag, COMP and P5c6
With B3, the MW in data set [3] (setting [4]) is recorded as 4066 kDa; in data set [3] (setting [5]) it was 4128 kDa; in data set [3] (setting [6]), 4331 kDa. In addition, the No. of monomers in data set [3] (setting [4]) turned out to be 323; in data set [3] (setting [5]), 328; in data set [3] (setting [6]), 344.
